# From US20230374147A1
# Biological target: BCMA:APRIL 1:1 (human) (UniProt Q02223)
# Assay: BLI, His-tagged human BCMA on tip, then human APRIL 3000 nM, then IgG; KD cell N/A, R2 0.0887
# BCMA:APRIL 1:1 (human), sequence (Q02223 1-54 limits assumed, chain 1 of 2): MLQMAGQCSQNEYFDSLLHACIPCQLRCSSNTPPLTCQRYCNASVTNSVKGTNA
# BCMA:APRIL 1:1 (human), sequence (O75888 115-250 limits assumed, chain 2 of 2, further chain): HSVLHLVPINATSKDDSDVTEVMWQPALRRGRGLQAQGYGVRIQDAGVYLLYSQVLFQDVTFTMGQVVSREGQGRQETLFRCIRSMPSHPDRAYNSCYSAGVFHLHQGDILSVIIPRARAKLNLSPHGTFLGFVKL
substance,measurement,value
J6M0 (antibody),BCMA:APRIL 1:1 response,0.18
